Reference: patent US20080124280A1

Assays:
purified αVβ3 integrin [1] = target: purified αVβ3 integrin (UniProt P06756); assay: antibody at 8 µg/ml added to 2 µg purified αVβ3 before [125I]-T4; native gel, band intensity
purified αVβ3 integrin [2] = target: purified αVβ3 integrin (UniProt P06756); assay: antibody at 2 µg/ml added to 2 µg purified αVβ3 before [125I]-T4; native gel, band intensity
purified αVβ3 integrin [3] = target: purified αVβ3 integrin (UniProt P06756); assay: antibody at 1 µg/ml added to 2 µg purified αVβ3 before [125I]-T4; native gel, band intensity
purified αVβ3 integrin [4] = target: purified αVβ3 integrin (UniProt P06756); assay: antibody at 4 µg/ml added to 2 µg purified αVβ3 before [125I]-T4; native gel, band intensity
purified αVβ3 integrin [5] = target: purified αVβ3 integrin (UniProt P06756); assay: antibody at 8 µg/ml added to purified αVβ3 30 min before [125I]-T4; native gel; the legend's value differs from the 59% of paragraph 377

purified αVβ3 integrin, sequence (P06756 31-1048 limits assumed, form in doubt, chain 1 of 2): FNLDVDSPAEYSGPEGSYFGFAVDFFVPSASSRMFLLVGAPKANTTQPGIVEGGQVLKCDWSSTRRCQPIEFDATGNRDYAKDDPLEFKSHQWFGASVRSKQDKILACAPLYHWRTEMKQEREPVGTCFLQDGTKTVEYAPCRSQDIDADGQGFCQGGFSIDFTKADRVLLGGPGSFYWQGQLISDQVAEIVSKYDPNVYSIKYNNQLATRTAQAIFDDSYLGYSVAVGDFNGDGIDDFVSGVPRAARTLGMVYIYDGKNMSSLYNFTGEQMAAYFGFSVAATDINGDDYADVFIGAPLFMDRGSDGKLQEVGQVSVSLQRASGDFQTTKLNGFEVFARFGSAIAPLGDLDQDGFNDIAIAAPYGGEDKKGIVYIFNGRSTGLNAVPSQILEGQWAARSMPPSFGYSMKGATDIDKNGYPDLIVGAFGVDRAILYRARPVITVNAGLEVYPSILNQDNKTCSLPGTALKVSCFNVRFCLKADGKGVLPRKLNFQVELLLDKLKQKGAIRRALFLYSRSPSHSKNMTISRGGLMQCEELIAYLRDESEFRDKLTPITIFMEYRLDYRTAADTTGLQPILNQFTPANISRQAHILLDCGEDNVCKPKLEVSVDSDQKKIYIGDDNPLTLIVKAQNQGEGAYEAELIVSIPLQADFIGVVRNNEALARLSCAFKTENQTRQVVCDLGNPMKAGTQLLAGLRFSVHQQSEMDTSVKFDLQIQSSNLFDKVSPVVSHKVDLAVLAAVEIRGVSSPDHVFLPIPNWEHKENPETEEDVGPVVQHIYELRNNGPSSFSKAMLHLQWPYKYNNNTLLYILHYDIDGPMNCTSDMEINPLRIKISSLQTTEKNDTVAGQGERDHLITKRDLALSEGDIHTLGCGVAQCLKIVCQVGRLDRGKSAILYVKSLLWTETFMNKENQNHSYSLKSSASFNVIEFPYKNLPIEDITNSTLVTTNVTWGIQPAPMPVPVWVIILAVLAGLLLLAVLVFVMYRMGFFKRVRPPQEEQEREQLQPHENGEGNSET
purified αVβ3 integrin, sequence (P05106 27-788 limits assumed, form in doubt, chain 2 of 2, further chain): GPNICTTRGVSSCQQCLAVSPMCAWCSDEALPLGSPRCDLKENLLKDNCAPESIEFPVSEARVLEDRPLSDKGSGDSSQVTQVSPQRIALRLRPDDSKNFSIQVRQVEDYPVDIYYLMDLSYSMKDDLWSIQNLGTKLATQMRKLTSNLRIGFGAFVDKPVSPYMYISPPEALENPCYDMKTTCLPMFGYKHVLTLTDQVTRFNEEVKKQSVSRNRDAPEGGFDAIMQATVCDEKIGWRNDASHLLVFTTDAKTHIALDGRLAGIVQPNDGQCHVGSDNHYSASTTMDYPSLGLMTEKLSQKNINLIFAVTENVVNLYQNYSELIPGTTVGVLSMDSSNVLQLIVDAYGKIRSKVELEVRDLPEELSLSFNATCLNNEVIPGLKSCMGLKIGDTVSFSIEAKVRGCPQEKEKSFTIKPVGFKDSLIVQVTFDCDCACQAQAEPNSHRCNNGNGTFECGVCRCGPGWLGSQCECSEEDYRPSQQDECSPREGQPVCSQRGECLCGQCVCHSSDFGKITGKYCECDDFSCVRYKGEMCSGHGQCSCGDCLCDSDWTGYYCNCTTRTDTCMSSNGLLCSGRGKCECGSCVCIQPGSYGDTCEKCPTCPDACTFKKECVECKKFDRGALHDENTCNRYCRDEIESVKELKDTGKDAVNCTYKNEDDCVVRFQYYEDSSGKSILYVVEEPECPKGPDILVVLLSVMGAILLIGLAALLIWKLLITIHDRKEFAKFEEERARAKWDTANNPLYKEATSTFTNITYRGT

percent decrease of band intensity (integrin-[125I]T4 complex) (purified αVβ3 integrin [1])	percent decrease of band intensity (integrin-[125I]T4 complex) (purified αVβ3 integrin [2])	percent reduction of integrin-[125I]T4 complex formation (purified αVβ3 integrin [3])	percent decrease of band intensity (integrin-[125I]T4 complex) (purified αVβ3 integrin [4])	percent reduction of T4 binding to αVβ3 (purified αVβ3 integrin [5])	percent reduction of T4 binding to αVβ3 (purified αVβ3 integrin [1])	percent reduction of T4 binding to αVβ3 (purified αVβ3 integrin [2])	percent reduction of T4 binding to αVβ3 (purified αVβ3 integrin [3])	percent reduction of T4 binding to αVβ3 (purified αVβ3 integrin [4])	Substance
81%	64%	52%	63%						monoclonal antibody LM609 to αVβ3
				58%	59%	46%	20%	47%	monoclonal antibody SC7312 to αVβ3
